In paper PMC11342882:

Biological target: FcRn with a C-terminal 6×His-tag and complexed with beta-2-microglobulin (UniProt P55899)
Experiment: BLI

Kd [µM]	Substance
0.021	sACE2_(2).v2.4-IgG1(YTE) from Expi293F (from UniProt Q9BYF1-1 18-732) (Fc fusion)
> 0.1	sACE2_(2).v2.4-IgG1 (from UniProt Q9BYF1-1 18-732) (Fc fusion)
